# Data from the domain aggregation screens of Martell et al. (2025).
# Experiment: soluble fraction after stress (log2 fold change); higher = more stays soluble; pooled small domains, quantitative proteomics
# Conditions: stress: 75 degC
# 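Also: 20 min heating vs room temperature control held 20 min.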
row,Sequence,soluble fraction (log2)
1,HMTRVDALDQLAAIRFSSHIFAEDQDLRMVVVDGQRIGEGDIVRDEIRLEQITETGVIFEYQGERFPIDV,-1.45
2,HMTRYQHLAMLLEKRIAQGLYRNGERLPSVRSLSAEHGVSISTVQQAYYLLEQKQLIIPQSRSGYYVAPH,-4.46
3,HMTSEVPVGSNVRIRASTLAGERDFEGTMLPPAGEGLTTLKLVNGYNLSYPSKDVLDIEFLGGAGE,0.14
4,HMTSHPTHTILDGKVHVFMRDGSPFWWGGFHFKGKYLRTSTKQKNLDSAKTIAQQWYFQKQTEIASGE,-2.85
5,HMTSKVTVLAVNGRITVSGKEQDETVSVYDTGGRLLYQGESDVINVPRKAMYIVTVSRKSYKVIV,-1.52
6,HMTSLAGIERFLASGAIAGVGEAMAHRLVQKFGKETLEIIEKKPSRLTEVAGVGKKTAAKIHASYMEK,-0.344
7,HMTSLGLEGLVNTTAIATSDLRPSGWALAGERKIFVVSEGEFIDNGDKIRILTVDGNRIVVRKETNK,-0.477
8,HMTSLTSDEEQIINVLRAEESVYINALATKSKIPLQKLLGLLIQLEFKGLIHSLPGSHYKIV,-0.221
9,HMTSNIIIVPNVVGMTKEQATAALAAAGLNIKLSGVETTDTAAVAVKQKPSANTKVEEGSVVTVEFDLK,≥ 1.04
10,HMTSPKSRIVSALLASPSRPEELAMRLGEDILTLMRTLTDFEASGIIQRLPDGRYTPTREYHLGLVDK,-0.12
11,HMTSPRRLYALIVEHVGKDGVMHRSDVENVLAKVESEMDVDDLLDQLEINGTIIRRQDGTWQLL,-0.716
12,HMTSRFITTEEGTLYVDADGRKVSGWQTIDGSRYYFDEHGIRQSGTIEVNGETYVLDEDGVL,0.0516
13,HMTSRWEIGYNVAKKYYDEHGNLDVERAVYDNFELKKWLNTQRYKNSAGTLAEKYKIKLDELGMNWER,-0.214
14,HMTSSQLYLIEEDMEGERLDAFLAEVIADLSRTAIKDLISNGRVLVDGQARKPSYRVKEGEQVLIHVPEAR,-0.392
15,HMTSVFQNSDGTWGHLTKTVNPLIYTIEYGRRTGFSSREEAEESYQRSLTSYQDQLSKLKKERD,0.297
16,HMTSVPGTVVTNANLRGGPGTNYPIVGKAPAGTTVNVVESTADRTWYYLDTGSWIAAFLVKLS,-0.33

row,Sequence,soluble fraction (log2)
1,HMTSVRVPVKKEIWFWAIKESQRDLNEILARFPKMDKWINQEENPTFNQLEKVAKFLRVPFGYMFLDKPPK,-1.86
2,HMTTETGTVKWFNEGKGFGFIAPDGGGKDLFAHFKEIQGSGFKTLTENQRVQFEVTQGQKGPQASNIRTL,0.227
3,HMTTHEQVAILRRELNGLVGAWHHRTGQAHGVTHSKLRKELGGPPAAVASAAQLSARIEKIRQWAT,-0.922
4,HMTTIAQMTGPQRAAVILLVLGEDHGRTIWQEFDDDEIRIITRAMAELGTVDADEVERLMLDFVGKLSS,-2.67
5,HMTTIAQNISNYRTRANMTQQQVADKLSVSHHTVSKWELGINTPSVEDMQKLAQVFGVTITELVVD,-0.652
6,HMTTIHVDPEKISKIIGPGGKTIKKIVEETGAKIDIEEDGRVYIAAVNSEEAAKAIDMINGI,0.0704
7,HMTTIPAGRQQYILSLIRREGTVTVSRLAQELEVSELTIRRDLDQMAARNLVERTHGGATERR,-1.53
8,HMTTKEEAAYQAIRSAIIDGELKPGQSVTIRDLASRFDLGRTPITDAMKHLALDGWLETTTGVGTRV,-0.183
9,HMTTLAADFNSDGRVDIGDLSILAGNWGKSRTNEVDFNKYGDADYNGRIDIIDLSILATQFGQTDNSN,0.321
10,HMTTLDTVARQLRDRIREQLDPTGEMSDESLLRTIEEAVYRYSSSGHVLTANEKETVIRRIFHSFR,0.042
11,HMTTMNSADLIKELEKAGWTLRGVKGSHHIYTHPARGGHLSVPHPKKDLGAGLARQLRKQAGL,-0.032
12,HMTTPAAISKIKKLEEAKRLLATTTYSMKEIAVKLKYKSHTHFGMDFKNNTGMTPAEYRKAIKAKREKQMN,-1.96
13,HMTTQERVSYSAFINDVETGRVAKVVISGYTIEGTRTNNSSFVTERPYGVDSNLSEVLMQNSVSIEGKA,-0.122
14,HMTTQVNTVKIQLANGYEMTVLTSKTNVKEILEDNNIILENNEKVTPNIDEEISSNKTIKITDKSN,0.055
15,HMTTTSGLIKTIQTGRRKLGMDDETYRALLADVSGGKTSSKDLNAYQLKEVLRRMREAGFRS,0.58
